Measurements taken from the supplement of paper PMC9170038.

Tested on: MS2 coat protein
Test: apparent KD of MS2 coat protein; designed switch direction (-1 OFF switch, 1 ON switch): -1; higher = weaker reporter binding
Procedure, shortened: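 SNAP-549-labelled MS2 coat protein was titrated, doubling from 0.7 or 1.5 nM to 3 µM, over designed RNA switches transcribed on Illumina chips by stalled E. coli RNA polymerase. Runs were done without input, with 200 uM small-molecule ligand, or with an oligonucleotide input. Apparent KD is the per-design median over clusters of curve-fitted normalised fluorescence.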

[1] = input ligand: microRNA oligo, concentration not stated
[2] = Eterna round: R95, input ligand: FMN 200 uM
[3] = Eterna round: R95, input ligand: microRNA oligo, concentration not stated
[4] = Eterna round: R95, input ligand: none

Sequence	apparent KD of MS2 coat protein [1]	apparent KD of MS2 coat protein [2]	apparent KD of MS2 coat protein [3]	apparent KD of MS2 coat protein [4]	apparent KD of MS2 coat protein (input ligand: FMN 200 uM)	apparent KD of MS2 coat protein (input ligand: none)
UAUAAAACAUAGGAUAUCGAAAUUAUCAUUUAACGAGAAGGAUGAACAUGAGGAUCACCCAUGUGGUAUCAUGG [Mat - Exclusion 6 - JL Mod - D10] (Eterna round: R96, puzzle: Exclusion 6)	328 nM					
UAUAAAACAUAGGAUAUCGAAAUUAUCAUUUAACGAGAAGGAUGAACAUGAGGAUCACCCAUGUGGUAUCAUGG [Mat - Exclusion 6 - JL Mod - D10] (puzzle: Exclusion 6)		370 nM	425 nM	238 nM		
UAUAAAAUAUAGGAUAUCGAAUAUAUUAUUUAACGAGAAGGAUGAACAUGAGGAUCACCCAUGUGGUAUCAUGG [Mat - Exclusion 6 - JL Mod - D37] (puzzle: Exclusion 6)		199 nM	255 nM	415 nM		
UAUAUAUAGUAAGGAUAUGUAAUUAUAUUAUAAACAGAAGGUACUGACAUGAGGAUCACCCAUGUUUUAGUGUGGGCAUGUAGA [JMF's solution 38] (Eterna round: R96, puzzle: Exclusion NG 1)	60.1 nM				85.9 nM	97.7 nM
UAUAUAUAGUAAGGAUAUGUAAUUAUUCUAUAAACAGAAGGUACUGACAUGAGGAUCACCCAUGUUUUAGUGUGGGCAUGUAGA [JMF's solution 40] (Eterna round: R96, puzzle: Exclusion NG 1)	33.8 nM					
UAUAUAUAGUAAGGAUAUGUAUAUACUUUAUAAACAGAAGGUACUGACAUGAGGAUCACCCAUGUUUUAGUGUGGGCAUGUAGA [JMF's solution 57] (Eterna round: R96, puzzle: Exclusion NG 1)	57.1 nM					
UAUAUAUAGUAAGGAUAUGUAUAUAUUUUAUAAACAGAAGGUACUGACAUGAGGAUCACCCAUGUUUUAGUGUGGGCAUGUAGA [JMF's solution 7] (Eterna round: R96, puzzle: Exclusion NG 1)	57.5 nM					
UAUAUAUAGUAAGGAUAUGUAUUAAUUUUUUAAACAGAAGGUACUGACAUGAGGAUCACCCAUGUUUUAGUGUGGGCAUGUAGA [JMF's solution 86] (Eterna round: R96, puzzle: Exclusion NG 1)	65.7 nM					
UAUAUAUAGUAAGGAUAUGUAUUUAUGUUAUAAACAGAAGGUACUGACAUGAGGAUCACCCAUGUUUUAGUGUGGGCAUGUAGA [JMF's solution 16] (Eterna round: R96, puzzle: Exclusion NG 1)	76.3 nM					
UAUAUGUCAGGAUAUUAGUAGUAAAUGAAUAAAAUUAUUACUGAGAAGGGACAUGAGGAUCACCCAUGUGCCUU [Mat - Exclusion 4 - Eli Mod - D23] (Eterna round: R97, puzzle: Exclusion 4)					20.6 nM	16.6 nM
UAUCAACAUGAGGAUCACCCAUGUGAGGAUAUCAAAACCAGAGCGGAUCUCUGGCCCAUGAGAAGGUACAUGGU [ElNandoxlusion 6 - Jieux - Exclusion 1] (Eterna round: R97, puzzle: Exclusion 1)					111 nM	22.3 nM
UAUCAUCAUGUAGGAUAUGCGUGGCAAAGCUAUGCAGAAGGACAUGAGGAUCACCCAUGUUCUAGCGUCUGAGUACAGAUGCUA [Mat - Exclusion NG 1 - Mod of JL - D75] (Eterna round: R96, puzzle: Exclusion NG 1)	66.4 nM				278 nM	83.7 nM
UAUCGGCGGACCGAGGCUUUUUGCUCGUCUUAUGCUAUGACAUGAGGAUCACCCAUGUGGUGGUGGUCCGUUGUAGU [JL ViennaUCT Bitein mod 10] (puzzle: Sensor v3, turn-off variant 2)		64.5 nM	12.6 nM	48.1 nM		
UAUCUACAUGUAGGAUAUGCGUGGCGAAGCUAUGCAGAAGGACAUGAGGAUCACCCAUGUUUUAGCGUCUGCGUACAGAUGCGU [JL ENG1 1.48] (Eterna round: R96, puzzle: Exclusion NG 1)	16.4 nM				149 nM	23.2 nM
UAUGAUUUAGGAUAUUGUACUGCUGACAUGAGGAUCACCCAUGUAUGCUAACUCGGCCGUCGAGAAGGAGAUUAUG [BotMod 29 - Jieux - Exclusion 5] (Eterna round: R97, puzzle: Exclusion 5)					37.9 nM	39.4 nM
UAUGGUUAAGUCAGGAUAUACUAAUAGAAGUCUGUGUAGAAGGGACAUGAGGAUCACCCAUGUAUGGUAGUGUU [Ex4 #60] (Eterna round: R97, puzzle: Brourd's mod of Exclusion 4)					119 nM	122 nM

Sequence	apparent KD of MS2 coat protein [1]	apparent KD of MS2 coat protein [2]	apparent KD of MS2 coat protein [3]	apparent KD of MS2 coat protein [4]	apparent KD of MS2 coat protein (input ligand: FMN 200 uM)	apparent KD of MS2 coat protein (input ligand: none)
UAUGGUUAAGUCAGGAUAUGCUCAUAGAGGUCUAUGCAGAAGGGACAUGAGGAUCACCCAUGUAUGGUCGUGUU [Ex4 #64] (Eterna round: R97, puzzle: Brourd's mod of Exclusion 4)					84.6 nM	53.6 nM
UAUGUGUGAGGAUAUGGUAAAGAUAAGAUGAUGAAAGAACUCCAGAAGGCACAUGAGGAUCACCCAUGUAGAUA [Mat - Exclusion 4 - Mod of JL - D23] (puzzle: Exclusion 4)			20.4 nM			
UAUUAAACAAGCAGGUCCCACAUGAGGAUCACCCAUGUGCUCGUCUUAUAAGGUACUGUGAUGAAAGUUACGGUACC [Elimod 17 - Jieux - Sensor, turn-off variant 1] (Eterna round: R97, puzzle: Sensor, turn-off variant 1)					36.4 nM	46.2 nM
UAUUAACAAGCAAGAUCCCACAUGAGGAUCACCCAUGUGCUCGUCUUAUAAGGUACUGUGACGAAAGUCACGGUACC [Sensor 3, v1 - 80] (puzzle: Sensor v3, turn-off variant 1)		26.5 nM	580 nM	28 nM		
UAUUAACAAGCUAGGUCCCACAUGAGGAUCACCCAUGUGCUCGUCUUAUAAGGUACUGUGACGAAAGUCACGGUACC [Sensor 3, v1 - 79] (Eterna round: R96, puzzle: Sensor v3, turn-off variant 1)	464 nM				30.2 nM	38.4 nM
UAUUAACAAGCUAGGUCCCACAUGAGGAUCACCCAUGUGCUCGUCUUAUAAGGUACUGUGACGAAAGUCACGGUACC [Sensor 3, v1 - 79] (puzzle: Sensor v3, turn-off variant 1)		30 nM	909 nM	31.5 nM		
UAUUAACAAGUAAGAUCCCACAUGAGGAUCACCCAUGUUCGUCUUAUAGGUACUGUGACACAAAGUGUCACGGUACC [Mod of Eli's R95 Sensor 3, v1 - 87] (Eterna round: R97, puzzle: Sensor, turn-off variant 1)					36.9 nM	44.9 nM
UAUUAACAUGUAGGAUAUCUGCACGAUUAGUGCAGAGAAGGACAUGAGGAUCACCCAUGUAGAUCAUAAUAAUUUAAUUUAAUU [ENG1/6-D1] (Eterna round: R96, puzzle: Exclusion NG 1)	106 nM					
UAUUACAAGCGAGAUCCUAACAUGAGGAUCACCCAUGUGCUCGUCUCAUAUAGGACUAUCACGAAAGUGAUAGUCCA [Level Boss var2-01] (puzzle: Sensor v3, turn-off variant 1)		21.5 nM	140 nM	15.2 nM		
UAUUAGAGAGGAUAUAUGAUGUGAAACAUGAGGAUCACCCAUGUAAUAUUAUGGAUGUAAAUAGAAGGCUCAUUUA [Mat - Exclusion 5 - JL mod - D15] (puzzle: Exclusion 5)		47.4 nM	77.5 nM	80.2 nM		
UAUUAGCAAGCAAGAUCCCACAUGAGGAUCACCCAUGUGCUCGUCUUAAGCCCAGAAUUACUGGGCGCUCGUCUUAU [Winner reversed engineered 22] (Eterna round: R97, puzzle: Sensor, turn-off variant 1)					30.3 nM	28.4 nM
UAUUAGCAAGCGAGAUCCCACAUGAGGAUCACCCAUGUAAUAAAAGCAUCCAGAAUUACUGGGUGCGCUCGUCUUAU [Winner reversed engineered 14] (Eterna round: R97, puzzle: Sensor, turn-off variant 1)					47.7 nM	49.5 nM
UAUUAGCAAGCGAGAUCCCACAUGAGGAUCACCCAUGUGCAUCCAGAAUUACUGGGUGCAAAAGCUCGUCUUAUAUA [Winner reversed engineered 2] (Eterna round: R97, puzzle: Sensor, turn-off variant 1)					62.4 nM	58.1 nM
UAUUAGCAAGCGAGAUCCCACAUGAGGAUCACCCAUGUGCUCGUCUUAUAAAAGACUGUGACAAAAGUCACGGUCAC [Sensor 3, v1 - 91 v5] (Eterna round: R97, puzzle: Sensor, turn-off variant 1)					15.9 nM	15.1 nM
UAUUAGCAAGUAAGGUCCCACAUGAGGAUCACCCAUGUGCUCGUCUUAUAAGGUACUGUGACGAAAGUCACGGUACC [Sensor 3, v1 - 95] (Eterna round: R96, puzzle: Sensor v3, turn-off variant 1)	326 nM				22 nM	23.6 nM
UAUUAGCAAGUAAGGUCCCACAUGAGGAUCACCCAUGUGCUCGUCUUAUAAGGUACUGUGACGAAAGUCACGGUACC [Sensor 3, v1 - 95] (puzzle: Sensor v3, turn-off variant 1)		18.4 nM	585 nM	18.1 nM		
